In US20120231065A1:

Biological target: GCSF receptor (rat, endogenous, on neurons / in cortex tissue) (rat) (UniProt D4A3R0)
Assay: cell-based or functional assay

UniProt D4A3R0, sequence (D4A3R0 entry or part of it limits assumed, form in doubt): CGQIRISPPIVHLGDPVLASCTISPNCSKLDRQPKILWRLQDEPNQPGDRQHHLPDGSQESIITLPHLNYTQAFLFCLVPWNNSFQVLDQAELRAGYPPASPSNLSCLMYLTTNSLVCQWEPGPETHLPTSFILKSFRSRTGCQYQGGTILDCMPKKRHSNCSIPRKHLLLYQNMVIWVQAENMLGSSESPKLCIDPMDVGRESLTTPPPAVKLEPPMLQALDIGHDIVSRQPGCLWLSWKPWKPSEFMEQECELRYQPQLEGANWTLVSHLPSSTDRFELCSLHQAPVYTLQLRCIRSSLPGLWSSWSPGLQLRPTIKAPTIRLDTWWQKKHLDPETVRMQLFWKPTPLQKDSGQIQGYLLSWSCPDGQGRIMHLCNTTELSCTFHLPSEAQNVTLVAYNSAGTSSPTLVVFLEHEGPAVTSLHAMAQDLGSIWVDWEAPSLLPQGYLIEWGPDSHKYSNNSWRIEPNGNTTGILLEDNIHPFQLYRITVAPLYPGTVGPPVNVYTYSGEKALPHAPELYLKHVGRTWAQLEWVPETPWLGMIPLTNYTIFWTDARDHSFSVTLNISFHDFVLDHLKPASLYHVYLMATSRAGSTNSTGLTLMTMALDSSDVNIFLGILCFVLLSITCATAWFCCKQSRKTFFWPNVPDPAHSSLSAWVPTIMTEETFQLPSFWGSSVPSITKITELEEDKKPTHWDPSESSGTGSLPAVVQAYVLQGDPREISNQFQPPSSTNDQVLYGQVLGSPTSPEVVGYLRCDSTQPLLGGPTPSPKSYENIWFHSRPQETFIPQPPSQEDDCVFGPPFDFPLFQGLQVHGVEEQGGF

Work on “recombinant human GCSF, Neupogen (Amgen) (from UniProt P09919 31-207) (ligand)” yielded an STAT3 nuclear translocation in neurons of the penumbra, percent of STAT3 positive neurons from all neurons (GCSF treated rats versus untreated controls) (percent of STAT3 positive neurons) of 34.4.
